{"source": "patent US9994845", "molecular_target": "fluorescently-labeled taxol-stabilized microtubules", "data": [{"protein": "purified recombinant full-length Kif19 (protein) MKDSGDSKDQQLMVALRVRPISVAELEEGATLIAHKVDEQMVVLMDPMEDPDDILRAHRSREKSYLFDVAFDFTATQEMVYQATTKSLIEGVISGYNATVFAYGPTGCGKTYTMLGTDQEPGIYVQTLNDLFRAIEETSNDMEYEVSMSYLEIYNEMIRDLLNPSLGYLELREDSKGVIQVAGITEVSTINAKEIMQLLMKGNRQRTQEPTAANQTSSRSHAVLQVTVRQRSRVKNILQEVRQGRLFMIDLAGSERASQTQNRGQRMKEGAHINRSLLALGNCINALSDKGSNKYINYRDSKLTRLLKDSLGGNSRTVMIAHISPASSAFEESRNTLTYAGRAKNIKTRVKQNLLNVSYHIAQYTSIIADLRGEIQRLKRKIDEQTGRGQARGRQDRGDIRHIQAEVQLHSGQGEKAGMGQLREQLASAFQEQMDVRRRLLELENRAMEVQIDTSRHLLTIAGWKHEKSRRALKWREEQRKECYAKDDSEKDSDTGDDQPDILEPPEVAAARESIAALVDEQKQLRKQKLALEQRCRELRARGRRLEETLPRRIGSEEQREVLSLLCRVHELEVENTEMQSHALLRDGALRHRHEAVRRLEQHRSLCDEIIQGQRQIIDDYNLAVPQRLEELYEVYLRELEEGSLEQATIMDQVASRALQDSSLPKITPAGTSLTPDSDLESVKTLSSDAQHLQNSALPPLSTESEGHHVFKAGTGAWQAKSSSVPTPPPIQLGSLVTQEAPAQDSLGSWINSSPDSSENLSEIPLSHKERKEILTGTKCIWVKAARRRSRALGTEGRHLLAPATERSSLSLHSLSEGDDARPPGPLACKRPPSPTLQHAASEDNLSSSTGEAPSRAVGHHGDGPRPWLRGQKKSLGKKREESLEAKRRKRRSRSFEVTGQGLSHPKTHLLGPHQAERISDHRMPVCRHPAPGIRHLGKVTLPLAKVKLPPSQNTGPGDSSPLAVPPNPGGGSRRATRGPRLPHGTSTHGKDGCSRHN", "values": [{"measurement": "microtubule depolymerization in vitro (TIRF time series, 5 minutes)", "result": "Kif-19 depolymerizes microtubules in vitro"}]}]}
